This series is described as follows: soluble on expression in E. coli; label from the status in PepcDB or PDB records.
Regarding “MGSDKIHHHHHHMKPDLSSHLVLGERPDGRTLITARWVLAWRDGGHALIPDGEIVVDRNEVLYAGPRFEGDVARRIDFGTALVSPGLIDLDALSDLDTYLLVHDNQPGWAKGRIWPRSYVESGPYEMYSAEELAFQKRFAFGLLLLNGITTAAPIASLYYRQWAETVAEFEAAADAAGDLGLRVFLSPAYRSGGMILEGPGRIEPAFDEPRGLQGLADAIDFIERNHGRHNGLVNGMLAPDRIETCTLHLLQRTMAAARDLDCRVRIHMAQGNLELETMRRLHGVSAPQWLADHGLMSERLIAPHGTYASPQDLQLYAQHGVSIAHSPLVSARMGSILNSFAACRSLGINIGMATDTAPPDMLMNLLVGLIACRIGEKTSDAVFSKDLFDAATLGGAKALGRRDLGRLAAGAKADIAVFRLDDVHMTPSVDPVTTLVVGGSGKVTQAVFVDGRLSMLDGKVAGIDMIAAREQAQQQYDGLIAKYPDRSWRHPPVGKIFSPSYPVWKIQ”, the “soluble on expression in E. coli” value is listed as “not soluble”. The same measure for “MEIVCEDFQKALTKIKLLRENANIIEETVQRSVREIVQNVRESRDEALSFYTKKFDGVEIKDVRVSEEEIKQASMFVESSFLEALQEAKKNIISYHEKQKRQSMFDCTSKGIIRGQIIRPLENIGVYVPGGTASYPSSVLMNVLPAKLAGVKKIVMVTPPRAGGIDPHILVAASLAGVDEIYMIGGAQAIAALAYGTESIPKVDKIVGPGNLYVALAKREVYGIVNIDMIAGPSEIVVIADETGNAKYIAADLLSQAEHDERATAICITTNIELAKEVEKEIERQLETLPRSEIARESINRNGAIFIVPSIDEALQLSNEIAPEHLELHIKEPMNALAYVKHAGSIFLGPYAPEPLGDYLAGPNHVLPTSGTARFFSPLSVDDFVKKSSFLSYTEGALRDVKHHIVELANKEGLHAHARAIQIRFGEEE”: “not soluble”. Turning to “MGSDKIHHHHHHMIYSVDKKDIEIGISACLIGEKVRFDASNKPSHFCIKEFSEHVSYKSFCPEVAVGLPIPRPTIRQIKRDDVIHVSQKDGSGDVTEALKAYGKKVASMTKSLSGYIFCAKSPSCGMERVKIYSPEGNSLPSKGIGAFAKEIMDANPLLPCEENGRLNDPLLRENFVARVFAYKHWQTIVESGLTKHKLTTFHSHYKYTVMSHDLIAYKELGQLLARADLPLDEVAAQYILGLMTALKIIATRKKHANTLAHIQGYFSKHLQANERQELCEQIDAYREGLIPLMAPLTLIKHYLLNHPKDYLTKQAYLSPYPDKLRLRYAY”, the “soluble on expression in E. coli” value is on record as “not soluble”. Then “MSAPLRVLVTGAAGQIGYSIVIRIADGTVFGKEQPVELVLLDVPQCSNILEGVVFELQDCALPTLFSVVAVTDEKSAFTGIDYAFLVGAMPRREGMERKDLLAANVKIFKSQGKALAEYAKPTTKVIVVGNPANTNAFIAAKYAAGKIPAKNFSAMTRLDHNRALAQLALKTGTTIGNVKNVIIWGNHSGTQFPDVTHATVNKNGTETDAYAAVGDNAFLQGPFIATVQKRGGVIIEKRKLSSAMSAAKAACDHIHDWHFGTKAGQFVSMAVPSDGSYGIPQGLIFSFPVTIEGGEWKIVQGLSFDDFAKGKIAATTKELEEERDDALKACDDANI”, with “not soluble”; and “STPTSQALYSDFSPPEGLEELLSAPPPDLVAQRHHGWNPKDCSENIDVKEGGLCFERRPVAQSTDGVRGKRGYSRGLHAWEISWPLEQRGTHAVVGVATALAPLQADHYAALLGSNSESWGWDIGRGKLYHQSKGLEAPQYPAGPQGEQLVVPERLLVVLDMEEGTLGYSIGGTYLGPAFRGLKGRTLYPSVSAVWGQCQVRIRYMGERRVEE”, with “soluble”; and “MSLKLVKLETFSTEFVCFVRATAEDGAQGWGQVAPYYADITAQVLHRQVAPYALGMACEDIDAMLDIVRDREHKFPGSYLRRAMGGVDTALWDMHGRRAGKPVCVLIGGTPGPVRAYGSSMKRDITPRDEAARLVRLRDEQGFDAFKFRIGAEVGRDRDEWPGRTEEIVPTMRRAMGDDVALLVDANSCYSPARAIEVGRMLEQHGISHYEEPCPYWEFAQTKEVTDTLDLDITGGEQDCLMERWQTMIADRVVDVLQPDICYLGGLSRTLRVARMAEAAGMPITPHAANLSMVTLFTMHLLRAIPNAGKYLEFSIEGLDYYPWQQGLFTSDPYRIEEGHATVTDAPGWGVDVNPDWLARSDYRVSELGEGHHHHHH”, with “soluble”.

With “MGSDKIHHHHHHMIIKNAKIYGDSLQDIEIKEGKITNIDSNLQGEEILDAKGMTLLPSFVDLCVSLKNDKFSLANLELLENECLKGGISSIVLRDCMDFDEESFALFLQNLAQRKMQIFSSVRVKDANGKLKNLATLLNKGACALELDSSLDANTLKVSSQYAFMKDSPIFVRCYDKDFDDNGVMNDCEMSFELGLIGMSKIAETSQIAKMKELAKFYKNKVIFDLLSLKDSLVLLDEKDLKLVSIHHLIKDDSACEDFNTAAKLMPPLRSKEDVLALREVLKEGKISFLTSLHSAKSISLKDLAFDEAAFGIHSVCEFISLCYTFLIKEGFLNWQELCRFTSKNPSEFLGLNSGVIEVGKEANLVLFDENEEIFAPKSSLYSEDKLFGKIKMHIIKGKNILEK”, the “soluble on expression in E. coli” value is given as “not soluble”.

In the case of “MKKIDRVIESIQSRITEGRLKPGQKLPSIRQAVDEFGVSKNTVIEAYERLSARGLIRSVHGAGFFVCASTPAPLSKATQPAHIVEAVDRLTLLTAQLDQEKLPVRVGDGRPPQSWMNDALPLRMKGNIFKNFVGDPSGYGGVSGHLQLRELIAARSNRADMSVHPDQIVTTFGANHALDLIIRRYLEPGDVVLVDDPGYYPLLGKFKLAKIRAIGVPRTPTGPDLDVMETLAAAHGPKMFFTQSTCQNPTGSSMSLPVAHGVLQVAQRFGLMVIDNDPFTDLPGNAGVPLSALDAFNSVIAISSFSKLLSASFRVGYVIARPEVARELTELKLLTVVNSSRFSEMVIAELIKSQRYGRHLNKLVNRLEEARRDYHRKVRKLGLDVFCAQETGYYSFLQLPHTVDEGQLVRKASAAGIMLAPGRLFAVDENPARPALRINVTRADDPRFYRFLKRQVIDGQV”, the “soluble on expression in E. coli” value was “not soluble”. On to “MSLMLEPNPTQIKEERIYAEMGLTDEEFAMVEKILGRLPNYTETGLFSVMWSEHCSYKNSKPVLRKFPTTGERVLQGPGEGAGIVDIGDNQAVVFKMESHNHPSAIEPYQGAATGVGGIIRDVFSMGARPVALLNSLRFGELQSPRVKYLFEEVVAGIAGYGNCIGIPTVGGEVQFDPCYEGNPLVNAMCVGLINHEDIKKGQAHGAGNTVMYVGASTGRDGIHGATFASEELSESSEAKRPAVQVGDPFMEKLLIEACLELIQSDALVGIQDMGAAGLTSSSAEMASKAGMGIEMYLDDVPQRETGMTPYEMMLSESQERMLIVVKKGREQEIVDLFEKYGLAAVTMGKVTEDKMLRLFHKGEMVAEVPADALAEEAPIYHKPSKEAAYFAEFQQMKMETPKVENYKETLFALLQQPTIASKEWVYDQYDYQVRTSTVVTPGSDAAVVRVRGTEKGLAMTTDCNSRYIYLDPEVGGKIAVAEAARNIVCSGGEPLAITDCLNFGNPEKPEIFWQIEKSVDGMSEACRTLQTPVIGGNVSMYNERSGEAVYPTPTVGMVGLVHDLKHVTTQEFKQAGDLVYVIGETKAEFGGSELQKMLHGKIFGQSPSIDLDVELKRQKQVLAAIQAGLVQSAHDVAEGGLAVAISESAIGANGLGATVKLDGEATAALFAESQSRFVITVKRENKEAFEKAVEAIQVGEVTNTNEVTIHNEENEVLLTANVDEMRKAWKGAIPCLLK”, for which the “soluble on expression in E. coli” value is recorded as “not soluble”. For the sequence “MGSSHHHHHHGGTGENLYFQGGSGPAREKAIVLIDGPALVHRWYHRWSYTTERYGTSLDVKQFAIKNARFMIATAHSFDPAHMAQHLLSPQTEYAHTPKHNRIIVCFDHGDGGRRQIYADYKANRLQKAVTSEFRLIERVAKKVFADEPRESLLVVPDCDAGLANLNAEADDMIATLAFFNQQNTRPTVVMSHDYDLYQLVDEAKKSYHYDIRTKHLVSERGVMERVGVPPKLVRDFKSLAGDSSDNIPGVNGIGKVRARNLLKKYGDLDGILFKGIKKETGHLGELLNEGAKMALISRQLVDFRMCPKVIKVCESFMRI”, the “soluble on expression in E. coli” value was “not soluble”. Turning to “MDAARFPADARVRVLARRFPPYHRDSPCLAILDRFLHDPTLSAAAVVDDAMRPVGLIDRYSLVEQFLHPYSRDLYHKHSIAAFMDPEPVIVEADSSIDDLSRIIIDAGMRHMVSGFIVTEDGLYLGIGSGHDLFEEVANRKQNHLYHLAHYDPLTSLPNRLLLNDRLKRACLRGQRGGYRIALLFIDLDRFKLVNDTLGHAAGDQLLQGVAGRFAACVRKVDTVARLGGDEFTVLLEPVQGPDEALAVAAKLAQSLERPFLIQNHEITTSASIGVVLFPEHDATVEGLMRKADAAMYCAKREGRNRFALFTEEMNSTVVERVTLESYLNAALEKGEFCCHFQPQMATADDRIVGVEALLRWTNPVLGRVPPLKFIPVAEDTGLILPLGLWALETACAQQVRWLSQGLPPLRMAVNISPLQFRNREFCDQVRAIVQRTGIRAEHLELELTESAVMADAESSVGILRELRDSGIRLAIDDFGTGYSSLSYLRKFPLDRLKIDRSFVSGIDRIPANELIVKAIVALGGSLGLDVIAEGVETPEELECIERCGCSEYQGFRLSEPLTAEDFAHWFEDSGYVLEHHHHHH”, the “soluble on expression in E. coli” value was “not soluble”. As for “MSLSVFDLFKIGIGPSSSHTVGPMRAAARFAEGLRREGLLEATASIKVELYGSLGATGKGHGSDKAVLLGLEGEQPDTVDTAAIPARLDAIRSSGELRLLGERPIRFVEKEHLALIRKPLAYHPNGMIFRAFDAAGLQVRSREYYSVGGGFVVDDEAAGLDRIVEDRTPLAFPFKTARQLLDHCAREGLSISQLMAENEKAWRPAEETRTGLLRIWQVMQDCVEAGCRNEGIMPGGLKVRRRAAALHRQLCQRPEAGLRDALSVLDWVNLYALAVNEENASGGRVVTAPTNGAAGIIPAVLHYYARFIPGADDDGVVRFLLTAAAIGILYKENASISGAEVGCQGEVGVACSMAAGALCEVLGGSVQQVENAAEIGMEHNLGLTCDPVGGLVQVPCIERNAMASVKAINAARMALRGDGQHFISLDKVIRTMRQTGADMKSKYKETARGGLAVNIIEC”, the “soluble on expression in E. coli” value is “not soluble”.

“SLFLLDPFSGISGDMFLSAMIDFVDKEDFINTIKKVIDVEIEIKKVKKCHILANKVNIIPKCINCNANTYKDIKNVIKSSDIQEDIKITALEILKILAEAESKVHNVDVENVHFHEVGNYDTIADIVGAAYIINKLNLKNNCLYKPINVGNGFVRTEHGLLPVPAPATAEILKGLKIFFSDINEELTTPTGSAIIKYINPKLAKGAFIIKEVSYGAGDKDLNLLNALRVFRVEDIKREDIVLLETNVDDISAEILGYLYEVLDGKVRDLHFIPTYMKKNRPAYTIRAIVDRDIAEEVAKIIMRETGSLGVRIFDIERITADREFKTIKLFDESVRLKVGRVNDEIISQKPEFEDLKNIAKKYGIPLKDLYKLINISQIKN”: the “soluble on expression in E. coli” value was “soluble”. Take “VDKRESYTKEDLLASGRGELFGAKGPQLPAPNMLMMDRVVKMTETGGNFDKGYVEAELDINPDLWFFGCHFIGDPVMPGCLGLDAMWQLVGFYLGWLGGEGKGRALGVGEVKFTGQVLPTAKKVTYRIHFKRIVNRRLIMGLADGEVLVDGRLIYTASDLKVGLFQDTSAF”: the “soluble on expression in E. coli” value was “soluble”. As to “ACTKNAIAQTGFNKDKYFNGDVWYVTDYLDLEPDDVPKRYCAALAAGTASGKLKEALYHYDPKTQDTFYDVSELQVESLGKYTANFKKVDKNGNVKVAVTAGNYYTFTVMYADDSSALIHTCLHKGNKDLGDLYAVLNRNKDAAAGDKVKSAVSAATLEFSKFISTKENNCAYDNDSLKSLLTK”, the “soluble on expression in E. coli” value is listed as “soluble”. In the case of “MSSGKDFFVHSHALCESENIGKDSRVWAFAHILPGARLGSECNVCDNVFIENDVIIGDRVTLKCGVQVWDGITIEDDVFIGPNATFTNDLFPRSKVYPQTFARTIIRKGASLGANCTILPGITIGINAMVGAGAVVTRSVPPNAIVVGNPAKIIGYVDAKPVNANSETRAEQKAPGVTATSVKNVTLHTMNEVADIRGSLSAGEFERSVPFKTERYFLVYDVPTAETRGEHAHRICHQFLVAVKGSVHVVADDGVNREEFILDKPNQGIHLPPMTWGIQYRYSQDAVLLVFASHYYDAGDYIRNYEEFKSLIANAELEHHHHHH”, the “soluble on expression in E. coli” value is on record as “soluble”.

(Values after the DeepSol protein solubility set.)
